# Measured values: paper doi:10.1101/2023.05.29.542777
# Legend:
# Assay in all cases: co-IP
# [1] = target: TbTim10-2X-Myc (T. brucei)
# [2] = target: TbTim10-3X-HA (T. brucei)
# [3] = target: TbTim8/13-3X-HA (T. brucei)
# [4] = target: TbTim13-3X-HA (T. brucei)
# TbTim9-3X-HA (T. brucei) = target: TbTim9-3X-HA (T. brucei)
# [5] = target: TbTim12-3X-HA (T. brucei)
substance,measurement,setting,value
TbTim8/13-3X-HA (natural protein),percent of the input co-precipitated (% of the input),[1],45
TbTim9-3X-HA (natural protein),percent of the input co-precipitated (% of the input),[1],35
TbTim10-2X-Myc (natural protein),percent of the input co-precipitated,[2],< 10%
same,percent of the input co-precipitated (% of the input),[3],60
same,percent of the input co-precipitated,[4],< 10%
same,percent of the input co-precipitated (% of the input),TbTim9-3X-HA (T. brucei),60
same,percent of the input co-precipitated,[5],< 10%
TbTim10-3X-HA (natural protein),percent of the input co-precipitated (% of the input),[1],30
TbTim12-3X-HA (natural protein),percent of the input co-precipitated (% of the input),[1],25
